# Tested on: 41-mer peptide substrate (41-PS), QTVTWPDMELPLPRNITEGE-ARGSVILTVKPIFEVSPSPL-(BIOTINYL)K
substance,measurement,value
aggrecan degrading metallo protease (ADMP),"cleavage of 41-PS to the 21-mer product, HPLC assay",Effect of incubation time was evaluated and found to be linear over the timecourse of the assay

# Source: patent US7223834
